# From publication PMC9165289, “Theranostic PSMA ligands with optimized backbones for intraoperative multimodal imaging and photodynamic therapy of prostate cancer” (European Journal of Nuclear Medicine and Molecular Imaging, 2022)
# Where two headings read alike, the source gives them in different places.
# Legend:
# [1] = system: LS174T-PSMA and LS174T wildtype xenografts; assay: ex vivo biodistribution of 111In-labeled ligands; parameters: species or system BALB/c nude mice; conditions: 0.3 nmol, 2 h p.i.
# Procedure: (§1) All animal experiments were approved by the institutional Animal Welfare Committee of the Radboud University Medical Center and were conducted in accordance to the guidelines of the Revised Dutch Act on Animal Experimentation. Animal experiments were performed in 8–10 weeks old male BALB/c nude mice (Janvier). The mice were housed in individually ventilated cages (Blue line IVC, 3–5 mice per cage), under standard non-sterile conditions with cage enrichment present. There was free access to chlorophyll-free animal chow (Sniff Voer) and water. Mice were subcutaneously inoculated with 3.0 × 10^6 LS174T-PSMA cells in the right flank and 1.5 × 10^6 LS174T WT cells in the left flank (diluted in 200-µl RPMI 1640 medium). When xenografts were approximately 0.5 cm^3 (10–14 days after injection), mice were block-randomized into groups based on tumor size. The researchers were not blinded for the experimental groups.
# (§2) Mice were intravenously injected with 0.3 nmol PSMA ligand, labeled with 10 MBq ^111In (molar activity 33.3 MBq/nmol) in PBS + 0.5% (w/v) BSA. For the ex vivo biodistribution, five groups (one group for each ligand) of four mice were included. Two hours p.i., all mice were euthanized by CO2/O2-asphyxiation. For two mice of each group (2 mice/ligand), background-subtracted fluorescence images were acquired with the IVIS imaging system (Xenogen VivoVision IVIS Lumina II, PerkinElmer), with a 640-nm excitation filter and a Cy5.5 emission filter and an acquisition time of 10 s. Next, µSPECT/CT imaging was performed in the same two mice per group, with a 1.0-mm diameter pinhole mouse collimator tube (U-SPECT II, MILabs). Mice were scanned for 30 min followed by a CT scan for anatomical reference (spatial resolution 160 μm, 615 μA, 65 kV). MILabs reconstruction software was used to reconstruct the µSPECT/CT scans, via an ordered-subset expectation maximization algorithm, energy windows 154–188 keV and 220–270 keV, 3 iterations, 16 subsets, and voxel size of 0.75 mm. SPECT/CT maximum intensity projections (MIPs) were created using the Inveon Research Workplace software (Siemens Preclinical Solutions, version 4.1). NIR fluorescence images were analyzed using Living Image software (PerkinElmer, version 4.2). After imaging, relevant tissues were dissected, weighed, and measured for radioactivity in a gamma-counter (2480 WIZARD^2 Automatic Gamma Counter, PerkinElmer). In addition, a blocking experiment with PSMA-N064 and PSMA-617 was performed. Full experimental procedures and results can be found in the supplementary data (Page 5, Supplementary Fig. 3).
# [2] = ex vivo biodistribution of 111In-labeled ligands; parameters: species or system BALB/c nude mice; conditions: male, BALB/c nude, mouse, iv, 0.3 nmol, total radioactivity, 2 h p.i.; for tissue uptake at 2 h: 10 MBq/mouse, i.v.
# Procedure: as §1, §2
# LS174T-PSMA cells [3] = assay: in vitro binding and internalization assay; type: cell-based, human; conditions: for PSMA-specific membrane binding and internalization: corrected for non-specific binding (2-PMPA)
# Procedure: The binding and internalization characteristics of the ligands were determined using LS174T-PSMA cells. Cells were cultured to confluency in 6-well plates followed by incubation with 50,000 counts per minute of ^111In-labeled ligand (0.1–0.25 pmol/well) in 1-ml RPMI + 0.5% BSA (37 °C, 2 h). Non-specific binding was determined by coincubation with 2(phosphonomethyl)-pentane-1,5-dioic acid (2-PMPA, 21.57 µM). PSMA-specific binding was defined as total binding minus the non-specific binding. To retrieve the membrane-bound fraction, cells were washed twice with PBS and incubated for 10 min at 0 °C with acid buffer (154-mM NaCl, 0.1 M acetic acid, pH 2.6). After incubation, the membrane-bound fraction was collected. Then, cells were washed and lysed with 0.1 M NaOH, and the cell lysate (intracellular activity) was collected. Intracellular and membrane-bound activity fractions were measured in a gamma-counter (2480 WIZARD^2 Automatic Gamma Counter, PerkinElmer).
# PSMA [4] = system: PSMA; parameters: method as in PMID 27789722, PMID 29651565; conditions: reported in the literature; cited from earlier work
# PSMA [5] = system: PSMA; parameters: method as in PMID 27789722, PMID 29651565; conditions: reported in the literature; cited from earlier work; remark: listed apart in the source
# [6] = system: LS174T-PSMA and LS174T wildtype xenografts; assay: µSPECT/CT and NIR fluorescence imaging; type: in vivo, BALB/c nude mice; conditions: 0.3 nmol, 10 MBq/mouse, 2 h p.i.
# From the text: as §2, with “SPECT/CT maximum intensity projections (MIPs) were created using the Inveon Research Workplace software (Siemens Preclinical Solutions, version 4.1).” left out, “In addition, a blocking experiment with PSMA-N064 and PSMA-617 was performed. Full experimental procedures and results can be found in the supplementary data (Page 5, Supplementary Fig. 3).” left out
# LS174T-PSMA cells [7] = system: LS174T-PSMA cells; parameters: method as in PMID 33408764; conditions: head-to-head comparison; cited from earlier work
# [8] = system: LS174T-PSMA and LS174T wildtype xenografts; assay: PSMA-N064 blocking experiment, ex vivo biodistribution; type: in vivo, BALB/c nude mice; conditions: 0.3 nmol, 10 MBq, i.v., 2 h p.i., n=5
# Procedure: as §1
# Five mice per group were intravenously injected with either 0.1 nmol PSMA-N064, 0.3 nmol PSMA-N064, 0.1 nmol PSMA-N064 + 10 nmol unlabeled PSMA-617 (100x excess) or PSMA-617. Ligands were labeled with 10 MBq ^111In in PBS+0.5% (w/v) BSA. For the ex vivo biodistribution four groups (one for each experimental condition) of five mice were included. Two hours p.i., all mice from all groups were euthanized by CO2/O2-asphyxiation and relevant tissues were dissected, weighed and measured for radioactivity in a gamma-counter (2480 WIZARD^2 Automatic Gamma Counter, PerkinElmer).
# [9] = LS174T wildtype tumor, n=4, read-out: Biodistribution Tumor- LS174T
# [10] = LS174T-PSMA tumor, n=4, read-out: Biodistribution Tumor+ LS174T-PSMA
# [11] = adrenals, n=4, read-out: Biodistribution Adrenals
# [12] = blood, n=4, read-out: Biodistribution Blood
# [13] = bone marrow, n=4, read-out: Biodistribution Bone marrow
# [14] = bone, n=4, read-out: Biodistribution Bone
# [15] = duodenum, n=4, read-out: Biodistribution Duodenum
# [16] = heart, n=4, read-out: Biodistribution Heart
# [17] = kidney, n=4, read-out: Biodistribution Kidney
# [18] = liver, n=4, read-out: Biodistribution Liver
# [19] = lung, n=4, read-out: Biodistribution Lung
# [20] = muscle, n=4, read-out: Biodistribution Muscle
# [21] = pancreas, n=4, read-out: Biodistribution Pancreas
# [22] = prostate, n=4, read-out: Biodistribution Prostate
# [23] = salivary glands, n=4, read-out: Biodistribution Salivary glands
# [24] = spleen, n=4, read-out: Biodistribution Spleen
# [25] = stomach, n=4, read-out: Biodistribution Stomach
# [26] = tumor (LS174T-PSMA xenograft) / blood, read-out: Tumor/Blood ratio
# [27] = tumor (LS174T-PSMA xenograft) / kidney, read-out: Tumor/Kidney ratio
# [28] = tumor (LS174T-PSMA xenograft) / liver, read-out: Tumor/Liver ratio
# [29] = tumor (LS174T-PSMA xenograft) / spleen, read-out: Tumor/Spleen ratio
Compound,Tumor/Negative tumor ratio [1],Tumor/Prostate ratio [1],Tumor/Salivary gland ratio [1],"tissue uptake at 2 h [2, 9]","tissue uptake at 2 h [2, 10]","tissue uptake at 2 h [2, 11]","tissue uptake at 2 h [2, 12]","tissue uptake at 2 h [2, 13]","tissue uptake at 2 h [2, 14]","tissue uptake at 2 h [2, 15]","tissue uptake at 2 h [2, 16]","tissue uptake at 2 h [2, 17]","tissue uptake at 2 h [2, 18]","tissue uptake at 2 h [2, 19]","tissue uptake at 2 h [2, 20]","tissue uptake at 2 h [2, 21]","tissue uptake at 2 h [2, 22]","tissue uptake at 2 h [2, 23]","tissue uptake at 2 h [2, 24]","tissue uptake at 2 h [2, 25]",also measured
C[Si](C)(CCC[N+](CCCS(=O)(=O)[O-])(CCCS(=O)(=O)O)CCCS(=O)(=O)O)O[Si]1(O[Si](C)(C)CCC[N+](CCCS(=O)(=O)[O-])(CCCS(=O)(=O)O)CCCS(=O)(=O)O)n2c3c4ccccc4c2N=C2N=C(N=c4c5c(OCCCOC(=O)NCCCCCC(=O)NCCCC[C@H](NC(=O)CN6CCN(CC(=O)O)CCN(CC(=O)O)CCN(CC(=O)O)CC6)C(=O)NCCCC[C@H](NC(=O)[C@H](CCC(=O)O)NC(=O)c6cccnc6)C(=O)NCc6ccc(C(=O)N[C@@H](Cc7ccc8ccccc8c7)C(=O)NCCCC[C@H](NC(=O)N[C@@H](CCC(=O)O)C(=O)O)C(=O)O)cc6)cccc5c(n41)=NC1=NC(=N3)c3ccccc31)c1ccccc12 [PSMA-N02],42.2 ± 16.4,46.9 ± 13.8,39.2 ± 3.7,0.6 ± 0.2 %ID/g,23 ± 2 %ID/g,1.2 ± 0.2 %ID/g,0.5 ± 0.01 %ID/g,0.1 ± 0.1 %ID/g,0.5 ± 0.04 %ID/g,0.4 ± 0.05 %ID/g,0.4 ± 0.05 %ID/g,99 ± 12 %ID/g,1.1 ± 0.1 %ID/g,1 ± 0.3 %ID/g,0.2 ± 0.04 %ID/g,0.3 ± 0.05 %ID/g,0.5 ± 0.1 %ID/g,0.6 ± 0.1 %ID/g,1.6 ± 0.2 %ID/g,0.5 ± 0.1 %ID/g,"tissue to tissue ratio at 2 h [2, 26]: 43.1 ± 4.1; tissue to tissue ratio at 2 h [2, 27]: 0.3 ± 0.01; tissue to tissue ratio at 2 h [2, 28]: 21.6 ± 1.6; tissue to tissue ratio at 2 h [2, 29]: 14.3 ± 2.5; internalization percentage (percentage of cell-associated ligand that was internalized) (LS174T-PSMA cells [3]; 37 °C, 2 h): 73–90%; PSMA-specific membrane binding and internalization (LS174T-PSMA cells [3]): highest membrane-bound and internalized fraction"
PSMA-1007,–,–,–,–,–,–,–,–,–,–,–,–,–,–,–,–,–,–,–,–,IC50 (PSMA [4]): 4.2 ± 0.5 nM; internalization ratio (PSMA [5]): 67%
"CC(=O)N[C@@H](CCCCNC(=O)CCCCCNC(=O)[C@H](CCC(=O)O)NC(=O)[C@H](CCC(=O)O)NC(=O)[C@H](Cc1ccccc1)NC(=O)[C@H](CCCCNC(=O)CCCCCNC(=O)OCCCOc1cccc2c3n4c(c12)=NC1=NC(=Nc2c5ccccc5c(n2[Si]4(O[Si](C)(C)CCC[N+](CCCS(=O)(=O)[O-])(CCCS(=O)(=O)O)CCCS(=O)(=O)O)O[Si](C)(C)CCC[N+](CCCS(=O)(=O)[O-])(CCCS(=O)(=O)O)CCCS(=O)(=O)O)N=C2N=C(N=3)c3ccccc32)c2ccccc21)NC(=O)CCC(C(=O)O)N1CCN(CC(=O)O)CCN(CC(=O)O)CCN(CC(=O)O)CC1)C(=O)O (some centres unmarked) [PSMA-N064inc, reference compound]",1.1 ± 0.5,1.3 ± 0.9,1.6 ± 0.5,0.4 ± 0.1 %ID/g,0.5 ± 0.2 %ID/g,0.7 ± 0.6 %ID/g,0.3 ± 0.2 %ID/g,0.1 ± 0.03 %ID/g,0.2 ± 0.1 %ID/g,0.2 ± 0.04 %ID/g,0.3 ± 0.1 %ID/g,47 ± 6 %ID/g,0.6 ± 0.1 %ID/g,0.3 ± 0.1 %ID/g,0.1 ± 0.1 %ID/g,0.1 ± 0.04 %ID/g,0.6 ± 0.7 %ID/g,0.3 ± 0.05 %ID/g,0.2 ± 0.04 %ID/g,0.4 ± 0.1 %ID/g,"tissue to tissue ratio at 2 h [2, 26]: 1.5 ± 0.6; tissue to tissue ratio at 2 h [2, 27]: 0.01 ± 0.003; tissue to tissue ratio at 2 h [2, 28]: 0.7 ± 0.2; tissue to tissue ratio at 2 h [2, 29]: 2.1 ± 0.5; renal ligand accumulation on images [6]: lowest; PSMA-specific membrane binding and internalization (LS174T-PSMA cells [3]): no binding and internalization"
O=C(O)CC[C@H](NC(=O)N[C@@H](CCCCNC(=O)[C@H](Cc1ccc2ccccc2c1)NC(=O)[C@H]1CC[C@H](CNC(=O)CN2CCN(CC(=O)O)CCN(CC(=O)O)CCN(CC(=O)O)CC2)CC1)C(=O)O)C(=O)O [PSMA-617],–,–,–,–,–,–,–,–,–,–,–,–,–,–,–,–,–,–,–,–,internalization ratio (LS174T-PSMA cells [7]): 46%; Biodistribution Tumor+ LS174T-PSMA [8]: 19 ± 2 %ID/g
